The text below walks through data of publication PMC5440690, “Sirt1 carboxyl-domain is an ATP-repressible domain that is transferrable to other proteins” (Nature Communications, 2017).

One may read the Km as the substrate concentration at which the rate is half of its maximum.

Substrate in this data set: NC(=O)c1ccc[n+]([C@@H]2O[C@H](COP(=O)([O-])OP(=O)(O)OC[C@H]3O[C@@H](n4cnc5c(N)ncnc54)[C@H](O)[C@@H]3O)[C@@H](O)[C@H]2O)c1
Put plainly: steady-state deacetylation kinetics (Km). The data set is classed as biochemical, Mus musculus.

B1: Sirt1 (Mus musculus) (protein)
chain: ADEVALALQAAGSPSAAAAMEAASQPADEPLRKRPRRDGPGLGRSPGEPSAAVAPAAAGCEAASAAAPAALWREAAGAAASAEREAPATAVAGDGDNGSGLRREPRAADDFDDDEGEEEDEAAAAAAAAAIGYRDNLLLTDGLLTNGFHSCESDDDDRTSHASSSDWTPRPRIGPYTFVQQHLMIGTDPRTILKDLLPETIPPPELDDMTLWQIVINILSEPPKRKKRKDINTIEDAVKLLQECKKIIVLTGAGVSVSCGIPDFRSRDGIYARLAVDFPDLPDPQAMFDIEYFRKDPRPFFKFAKEIYPGQFQPSLCHKFIALSDKEGKLLRNYTQNIDTLEQVAGIQRILQCHGSFATASCLICKYKVDCEAVRGDIFNQVVPRCPRCPADEPLAIMKPEIVFFGENLPEQFHRAMKYDKDEVDLLIVIGSSLKVRPVALIPSSIPHEVPQILINREPLPHLHFDVELLGDCDVIINELCHRLGGEYAKLCCNPVKLSEITEKPPRPQKELVHLSELPPTPLHISEDSSSPERTVPQDSSVIATLVDQATNNNVNDLEVSESSCVEEKPQEVQTSRNVENINVENPDFKAVGSSTADKNERTSVAETVRKCWPNRLAKEQISKRLEGNQYLFVPPNRYIFHGAEVYSDSEDDVLSSSSCGSNSDSGTCQSPSLEEPLEDESEIEEFYNGLEDDTERPECAGGSGFGADGGDQEVVNEAIATRQELTDVNYPSDKS
notes: recombinant WT Sirt1
As to B1, the Km amounted to 203.08 ± 13.24 µM.
